Reference: paper PMC9482650, “Quantitative fragmentomics allow affinity mapping of interactomes” (Nature Communications, 2022)

Legend:
Test in all cases: holdup assay
Parameters in all cases: key: below the threshold = too weak to quantify, mostly under pKd 3.1 to 4
[1] = biological target: DLG2_2, Q15700
[2] = biological target: T1, APBA2_1, Q99767
T1 sequence (Q99767 563-664, limits assumed, looked up): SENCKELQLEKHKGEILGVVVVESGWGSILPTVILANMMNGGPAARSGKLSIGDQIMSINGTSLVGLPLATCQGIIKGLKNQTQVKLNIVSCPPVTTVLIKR

[3] = biological target: Inadl_3, Q8NI35
Sequence of Inadl_3, Q8NI35 (Q8NI35 359-469): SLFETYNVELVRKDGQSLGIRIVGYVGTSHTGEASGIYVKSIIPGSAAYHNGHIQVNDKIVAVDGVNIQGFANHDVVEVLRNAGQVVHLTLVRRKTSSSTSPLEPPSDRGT

[4] = biological target: PICK1, Q9NRD5
Sequence of PICK1, Q9NRD5 (Q9NRD5 17-115): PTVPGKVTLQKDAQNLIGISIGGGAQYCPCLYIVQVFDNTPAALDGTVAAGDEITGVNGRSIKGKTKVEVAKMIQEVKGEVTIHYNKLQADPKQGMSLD

[5] = biological target: T2, GRIP1_4, Q9Y3R0
T2 sequence (Q9Y3R0 467-571, limits assumed, looked up): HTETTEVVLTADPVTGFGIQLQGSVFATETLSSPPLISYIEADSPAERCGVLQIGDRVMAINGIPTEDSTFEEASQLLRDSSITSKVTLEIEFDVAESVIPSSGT

[6] = biological target: T3, LNX2_2, Q8N448
T3 sequence (Q8N448 334-432, limits assumed, looked up): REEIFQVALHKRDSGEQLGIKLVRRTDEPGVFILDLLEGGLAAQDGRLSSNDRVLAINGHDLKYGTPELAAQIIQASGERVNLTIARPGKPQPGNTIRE

[7] = biological target: GRIP2_7, Q9C0E4
Sequence of GRIP2_7, Q9C0E4 (Q9C0E4 934-1023): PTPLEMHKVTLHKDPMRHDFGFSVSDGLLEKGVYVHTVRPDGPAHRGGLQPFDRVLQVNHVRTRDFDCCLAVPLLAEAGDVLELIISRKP

[8] = biological target: GOPC, Q9HD26
[9] = biological target: T4, ARHGEF11, O15085
T4 sequence (O15085 42-136, limits assumed, looked up): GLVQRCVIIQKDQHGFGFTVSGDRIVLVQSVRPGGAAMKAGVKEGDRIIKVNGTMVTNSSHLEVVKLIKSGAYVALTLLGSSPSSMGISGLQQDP

[10] = biological target: LDB3, O75112
Sequence of LDB3, O75112 (O75112 1-94): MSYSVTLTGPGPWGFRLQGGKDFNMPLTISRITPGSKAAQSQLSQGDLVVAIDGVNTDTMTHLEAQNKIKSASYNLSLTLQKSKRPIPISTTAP

[11] = biological target: GIPC2, Q8TF65
Sequence of GIPC2, Q8TF65 (Q8TF65 112-203): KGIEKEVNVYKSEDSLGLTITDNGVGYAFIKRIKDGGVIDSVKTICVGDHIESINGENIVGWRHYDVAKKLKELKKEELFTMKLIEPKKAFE

[12] = biological target: Inadl_1, Q8NI35
Sequence of Inadl_1, Q8NI35 (Q8NI35 113-229): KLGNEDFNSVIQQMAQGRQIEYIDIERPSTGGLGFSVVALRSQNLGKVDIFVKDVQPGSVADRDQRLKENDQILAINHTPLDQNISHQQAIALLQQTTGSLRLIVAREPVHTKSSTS

[13] = biological target: PDLIM1, O00151
Sequence of PDLIM1, O00151 (O00151 1-87): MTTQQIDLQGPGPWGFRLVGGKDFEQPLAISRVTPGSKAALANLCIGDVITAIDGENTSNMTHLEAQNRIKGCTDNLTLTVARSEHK

[14] = biological target: T5, GRIP1_2, Q9Y3R0
T5 sequence (Q9Y3R0 145-248, limits assumed, looked up): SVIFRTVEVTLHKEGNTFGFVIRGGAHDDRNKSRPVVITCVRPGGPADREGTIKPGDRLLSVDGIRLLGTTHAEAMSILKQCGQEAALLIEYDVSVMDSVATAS

[15] = biological target: T6, MPDZ_12, O75970
T6 sequence (O75970 1857-1958, limits assumed, looked up): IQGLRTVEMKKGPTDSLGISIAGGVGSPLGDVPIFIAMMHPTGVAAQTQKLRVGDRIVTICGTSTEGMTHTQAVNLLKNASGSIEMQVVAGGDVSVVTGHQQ

[16] = biological target: ARHGEF12, Q9NZN5-2
Sequence of ARHGEF12, Q9NZN5-2 (Q9NZN5 other isoform, or with tags, fused parts or gaps): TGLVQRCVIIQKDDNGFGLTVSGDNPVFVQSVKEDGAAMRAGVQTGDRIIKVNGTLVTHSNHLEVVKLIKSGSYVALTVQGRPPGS

[17] = biological target: SCRIB_1, Q14160
Sequence of SCRIB_1, Q14160 (Q14160 718-814): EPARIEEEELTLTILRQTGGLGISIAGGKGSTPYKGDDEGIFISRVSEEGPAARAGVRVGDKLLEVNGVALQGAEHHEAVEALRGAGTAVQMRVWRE

[18] = biological target: T7, SIPA1L2, Q9P2F8
T7 sequence (Q9P2F8 945-1036, limits assumed, looked up): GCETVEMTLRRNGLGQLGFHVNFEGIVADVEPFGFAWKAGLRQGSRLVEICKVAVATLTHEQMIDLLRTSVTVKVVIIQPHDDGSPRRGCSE

[19] = biological target: DLG2_3, Q15700
[20] = biological target: T8, PDZD7_3, Q9H5P4
T8 sequence (Q9H5P4 857-944, limits assumed, looked up): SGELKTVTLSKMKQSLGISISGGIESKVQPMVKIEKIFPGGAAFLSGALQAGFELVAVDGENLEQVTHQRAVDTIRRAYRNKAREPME

[21] = biological target: T9, SNTA1, Q13424
T9 sequence (Q13424 82-180, limits assumed, looked up): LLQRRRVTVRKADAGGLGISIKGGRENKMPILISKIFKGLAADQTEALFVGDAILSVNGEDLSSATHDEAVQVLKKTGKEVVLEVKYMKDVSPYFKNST

[22] = biological target: HTRA2, O43464
Sequence of HTRA2, O43464 (O43464 355-458): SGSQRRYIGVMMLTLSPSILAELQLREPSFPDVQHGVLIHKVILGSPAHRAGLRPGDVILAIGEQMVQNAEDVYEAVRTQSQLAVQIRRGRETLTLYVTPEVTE

[23] = biological target: Inadl_4, Q8NI35
Sequence of Inadl_4, Q8NI35 (Q8NI35 547-651): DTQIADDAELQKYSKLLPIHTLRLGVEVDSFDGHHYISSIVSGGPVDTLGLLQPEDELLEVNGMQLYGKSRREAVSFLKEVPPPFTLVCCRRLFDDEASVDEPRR

[24] = biological target: T10, PTPN13_1, Q12923
T10 sequence (Q12923 1088-1188, limits assumed, looked up): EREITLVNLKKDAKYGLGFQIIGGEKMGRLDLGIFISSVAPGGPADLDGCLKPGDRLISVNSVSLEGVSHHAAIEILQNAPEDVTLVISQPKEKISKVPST

[25] = biological target: LNX1_2, Q8TBB1
Sequence of LNX1_2, Q8TBB1 (Q8TBB1 371-470): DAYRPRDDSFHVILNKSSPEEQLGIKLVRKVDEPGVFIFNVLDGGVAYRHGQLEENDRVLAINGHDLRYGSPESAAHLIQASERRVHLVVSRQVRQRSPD

[26] = biological target: T11, GRIP1_3, Q9Y3R0
T11 sequence (Q9Y3R0 247-346, limits assumed, looked up): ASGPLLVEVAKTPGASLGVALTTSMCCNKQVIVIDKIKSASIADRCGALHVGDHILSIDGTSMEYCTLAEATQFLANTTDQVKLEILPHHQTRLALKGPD

[27] = biological target: MAST2, Q6P0Q8
Sequence of MAST2, Q6P0Q8 (Q6P0Q8 1099-1202): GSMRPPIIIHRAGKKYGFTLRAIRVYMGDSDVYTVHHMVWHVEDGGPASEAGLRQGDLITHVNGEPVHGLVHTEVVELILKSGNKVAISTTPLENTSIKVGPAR

[28] = plain residues with an end cap or a label only (N-terminal biotin on a linker: ado-ado)
[29] = plain residues with an end cap or a label only (N-terminal biotin on a linker: ahx)

## RSSGGDDFWF [KCNV1, Q6PIU1]
[1]; [28]
  pKd: below the threshold
[2]; [28]
  pKd: below the threshold
[3]; [28]
  pKd: 3.59
[4]; [28]
  pKd: 4.01
[5]; [28]
  pKd: below the threshold
[6]; [28]
  pKd: 3.8
[7]; [28]
  pKd: 4.59
[8]; [28]
  pKd: below the threshold
[9]; [28]
  pKd: below the threshold
[10]; [28]
  pKd: below the threshold
[11]; [28]
  pKd: below the threshold
[12]; [28]
  pKd: below the threshold
[13]; [28]
  pKd: below the threshold
[14]; [28]
  pKd: below the threshold
[15]; [28]
  pKd: below the threshold
[16]; [28]
  pKd: below the threshold
[17]; [28]
  pKd: below the threshold
[18]; [28]
  pKd: below the threshold
[19]; [28]
  pKd: 3.6
[20]; [28]
  pKd: 3.92
[21]; [28]
  pKd: below the threshold
[22]; [28]
  pKd: below the threshold
[23]; [28]
  pKd: below the threshold
[24]; [28]
  pKd: below the threshold
[25]; [28]
  pKd: below the threshold
[26]; [28]
  pKd: below the threshold
[27]; [28]
  pKd: 4.61

## RDPPAEWTRV [PTPN18, Q99952]
[1]; [28]
  pKd: 4.01
[2]; [28]
  pKd: below the threshold
[3]; [28]
  pKd: below the threshold
[4]; [28]
  pKd: below the threshold
[5]; [28]
  pKd: below the threshold
[6]; [28]
  pKd: 5.15
[7]; [28]
  pKd: below the threshold
[8]; [28]
  pKd: 4.3
[9]; [28]
  pKd: 4.38
[10]; [28]
  pKd: below the threshold
[11]; [28]
  pKd: below the threshold
[12]; [28]
  pKd: below the threshold
[13]; [28]
  pKd: below the threshold
[14]; [28]
  pKd: below the threshold
[15]; [28]
  pKd: 3.66
[16]; [28]
  pKd: 3.88
[17]; [28]
  pKd: 4.1
[18]; [28]
  pKd: below the threshold
[19]; [28]
  pKd: 3.54
[20]; [28]
  pKd: 4.83
[21]; [28]
  pKd: 4.39
[22]; [28]
  pKd: below the threshold
[23]; [28]
  pKd: below the threshold
[24]; [28]
  pKd: below the threshold
[25]; [28]
  pKd: 3.47
[26]; [28]
  pKd: below the threshold
[27]; [28]
  pKd: 5.62

## GTGYDRKDYV [CLDN3, O15551]
[1]; [28]
  pKd: below the threshold
[2]; [28]
  pKd: below the threshold
[3]; [28]
  pKd: below the threshold
[4]; [28]
  pKd: below the threshold
[5]; [28]
  pKd: below the threshold
[6]; [28]
  pKd: 4.04
[7]; [28]
  pKd: below the threshold
[8]; [28]
  pKd: below the threshold
[9]; [28]
  pKd: 3.9
[10]; [28]
  pKd: below the threshold
[11]; [28]
  pKd: below the threshold
[12]; [28]
  pKd: below the threshold
[13]; [28]
  pKd: below the threshold
[14]; [28]
  pKd: below the threshold
[15]; [28]
  pKd: below the threshold
[16]; [28]
  pKd: below the threshold
[17]; [28]
  pKd: below the threshold
[18]; [28]
  pKd: below the threshold
[19]; [28]
  pKd: below the threshold
[20]; [28]
  pKd: 4
[21]; [28]
  pKd: below the threshold
[22]; [28]
  pKd: below the threshold
[23]; [28]
  pKd: below the threshold
[24]; [28]
  pKd: below the threshold
[25]; [28]
  pKd: below the threshold
[26]; [28]
  pKd: below the threshold
[27]; [28]
  pKd: below the threshold

## TESNLQTSSC [CGN, Q9P2M7]
[1]; [29]
  pKd: below the threshold
[2]; [29]
  pKd: below the threshold
[3]; [29]
  pKd: 3.64
[4]; [29]
  pKd: below the threshold
[5]; [29]
  pKd: below the threshold
[6]; [29]
  pKd: below the threshold
[7]; [29]
  pKd: below the threshold
[8]; [29]
  pKd: below the threshold
[9]; [29]
  pKd: below the threshold
[10]; [29]
  pKd: below the threshold
[11]; [29]
  pKd: 3.78
[12]; [29]
  pKd: below the threshold
[13]; [29]
  pKd: below the threshold
[14]; [29]
  pKd: below the threshold
[15]; [29]
  pKd: below the threshold
[16]; [29]
  pKd: 3.71
[17]; [29]
  pKd: below the threshold
[18]; [29]
  pKd: below the threshold
[19]; [29]
  pKd: below the threshold
[20]; [29]
  pKd: below the threshold
[21]; [29]
  pKd: below the threshold
[22]; [29]
  pKd: below the threshold
[23]; [29]
  pKd: below the threshold
[24]; [29]
  pKd: below the threshold
[25]; [29]
  pKd: below the threshold
[26]; [29]
  pKd: below the threshold
[27]; [29]
  pKd: below the threshold
